This passage reports amyloid nucleation score results from the supplement of paper PMC12042874.

± gives the uncertainty stated by the source.

The data set is described as follows: amyloid nucleation score (Sup35N fusion, yeast selection) (log enrichment); library NNK1; higher = more nucleation; inactive = no reads after selection. In outline: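 Nucleation score is defined as the DiMSum log enrichment of output over input reads, with centring on the mode score of non-aggregating sequences. A minimum of 100 input reads was required for each sequence. Reads came from Illumina sequencing of plasmid inserts from psi-negative yeast expressing Sup35N fused to peptides of 20 random codons, induced with 100 μM copper sulfate for 24 hours and grown 7 days at 30°C on medium lacking adenine and uracil.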
For the substance LFVLKTWLRNSDWFRYDESQ, the amyloid nucleation score was -0.094 ± 0.68. For the substance TYRFGCTLPLLRMCFIP, the amyloid nucleation score was found to be 0.435 ± 0.71.

In turn, LVWRFS registered an amyloid nucleation score of 1.56 ± 0.28. For the substance FIGAFRTTHSAGLLTDRMVL, the amyloid nucleation score worked out at 7.851 ± 0.057. Take ISALRFSTLRSCGAGPGVAS: the amyloid nucleation score was -0.859 ± 1.2. As for EPKVSSEQKVFDSCYT, the figure is 0.417 ± 0.61. With TFSGFYGVYYNQILVGSLIQ, the amyloid nucleation score entry is “inactive”. As for CSGNI, the amyloid nucleation score was -1.32 ± 1.7. Regarding NPDDVFMSAVWGYF, the amyloid nucleation score is -0.127 ± 0.19. Take IRVFLLSCQTEKLGSVGVRS: the amyloid nucleation score was -0.007 ± 0.41. Take SWVNRPYWSPGDTTVWYGC: the amyloid nucleation score is 1.06 ± 0.52. In the case of RSMSTIRIEGSESTSFISS, the amyloid nucleation score was -0.812 ± 1.7. PFTVTKFRSYEISVINLPNW showed an amyloid nucleation score of 1.34 ± 0.11. Substance TLDWLMSIFLILVSLAFNGL registered an amyloid nucleation score of -0.14 ± 0.33.

The substance LSSCFPIDRSEDSDVYGYFK came in with an amyloid nucleation score of -0.252 ± 0.49. For YLKINTTYGCDI, the amyloid nucleation score was 1.93 ± 0.34. Substance TYLFSTVGVSGSSMSQVYIV gave an amyloid nucleation score of -0.387 ± 0.46. DFRWWYLFC showed an amyloid nucleation score of 1.11 ± 0.26. Regarding VCGGETLPRVVSNGGRSPRV, the amyloid nucleation score stood at 0.602 ± 0.35. In the case of NMTPFGYIHFTL it was 0.644 ± 1; in that of CNVGLKVYLADISSGSVCYL, 4.39 ± 0.075; in that of VAKSRCYTQCGLGYLSRKLA, “inactive”. Substance SYESSLNGRISFRNGERLLC displayed an amyloid nucleation score of 0.115 ± 0.42. In the case of TNGRR it was -0.691 ± 1.2. Regarding HSGMRVPSMAYLVL, the amyloid nucleation score was -0.259 ± 0.7. As for YLVSTSRWGYLVLTLMWKEG, the entry is “inactive”. As to SYSCSVSRKEFSIGVGEHEG, the amyloid nucleation score is -0.44 ± 0.5. The substance WCARNISRCPSNISGNLGMK came in with an amyloid nucleation score of -0.461 ± 0.69. LLTSIPRRVIARVSEGFCCN: the amyloid nucleation score was -0.311 ± 0.71.

RNFCSSEGPSRHERLCNTKR had an amyloid nucleation score of -0.542 ± 0.68.

Consider HVVAALWCARNFWGVLNVCC, for which the amyloid nucleation score was -0.09 ± 0.53. Turning to NSSMVG, the amyloid nucleation score is -1.16 ± 1.7. As for ERNSITSILKRNRLSRGFAL, the figure is 2.44 ± 0.48.

On to VELQYDLYCFSSFADPLS, for which the amyloid nucleation score amounted to 1.29 ± 0.6.

Substance FPDYQVLLQCYLN gave an amyloid nucleation score of 0.418 ± 0.38.

The substance PERNNEYHVMLTRHRCHQGC yielded an amyloid nucleation score of -1.41 ± 2.4.

On to MVRNKQKLLKGQ, for which the amyloid nucleation score stood at 0.375 ± 0.49. FIRGDANSLLHYLSDCVRE yielded an amyloid nucleation score of 1.37 ± 0.9. With YVIEIMISHVPAIWRGYTCS, the amyloid nucleation score came to 0.554 ± 0.71.

Substance CCHAYRFGWNASVLRCGICL gave an amyloid nucleation score of -0.444 ± 1.9.

In turn, LVNGTMFINPCYVQGRCKEM displayed an amyloid nucleation score of 2.27 ± 0.12.

For FESKYNTP, the amyloid nucleation score is 0.41 ± 0.47. Regarding LGLMTFFVWFNWG, the amyloid nucleation score was -1.43 ± 1. IICLVNMDLCKSR gave an amyloid nucleation score of 3.9 ± 0.16.

The substance RLASMREHLVWYRRGFRVCC had an amyloid nucleation score of 0.725 ± 0.58. As for HAWVVVGRRGGKGLEAWCPV, the figure is -0.71 ± 0.81; as for RVSLSCIMKIYNFDKRVWLG, 0.521 ± 0.97; as for LNDPMAGRLNNVRSGCLDDV, -0.059 ± 0.43.

MCRLTPRIITDY came in with an amyloid nucleation score of 0.244 ± 0.28.

QFVQAGRKLGNNVDGWKYVC came in with an amyloid nucleation score of -0.997 ± 0.5. In turn, CIDFKSSGAGSTMSWNLVFN displayed an amyloid nucleation score of -0.188 ± 0.48.

As for DGSGGPYIGILLWGLAKMSG, the amyloid nucleation score is -0.488 ± 0.85.

The substance SEYAVNSGSITFFIHAVWCW had an amyloid nucleation score of 0.349 ± 0.26. In the case of VENNWIWVGRTLNATLDSHQ it was 0.082 ± 0.26; in that of RYRCSKVRRAMSKLTYVGMA, 4.18 ± 0.07; in that of LVMHVSWNVFIAVVLIFKDG, 0.375 ± 0.43. With SVNLGGHAGCCGCWAYGGFR, the amyloid nucleation score was determined as 0.851 ± 0.37. The substance YVMSS yielded an amyloid nucleation score of -0.369 ± 0.41. The substance SYGSVCNDNQSNRRYVHIHM returned an amyloid nucleation score of 2.89 ± 0.22. Substance LCCRLMTTICPKLCSVLLMS displayed an amyloid nucleation score of 0.217 ± 0.28. LAIVGQACRGVVEHARVSGH yielded an amyloid nucleation score of 0.136 ± 0.41.

Consider NADMFRTVLMMMFPAFRLIR, for which the amyloid nucleation score amounted to 0.172 ± 0.22. For the substance FRSPN, the amyloid nucleation score is -0.285 ± 0.58. ENFLTNYFYSVVTVI registered an amyloid nucleation score of -1.51 ± 1.2. In the case of LYRFNF it was 0.223 ± 0.45; in that of IYSRVGWETSWDWSVSVWGF, 0.031 ± 0.37. As for AVYMLSMCPFEYAYKRCVCG, the figure is -1.16 ± 1.7; as for CMSVETLTEMVYFKSYTL, 0.257 ± 0.42; as for WWALIHRPMVRVLGVQRVD, -0.297 ± 0.88.

Regarding SYMNGKWMSMWVRLWGCLAF, the amyloid nucleation score was determined as 0.004 ± 0.48. In the case of KCLTMDFLR, the amyloid nucleation score was -1.12 ± 1.1. Substance HFFDITLKADNSIILSLSKS registered an amyloid nucleation score of 6.549 ± 0.057. NYFTRFVTGDGLSFLMRVAT gave an amyloid nucleation score of 0.487 ± 0.82. QMGIMFALILQMYFSKFQDW yielded an amyloid nucleation score of -0.182 ± 0.21. Substance SLLDSEGVRYLIMEL showed an amyloid nucleation score of 0.102 ± 0.4. Regarding MMPSECMEFLMCLWFGSGSD, the amyloid nucleation score was -0.722 ± 0.55. For the substance LHAYTLSYGLLVLSARSHEL, the amyloid nucleation score is -0.01 ± 0.67. Consider PQGSVGLEFKNYCVRAACGF, for which the amyloid nucleation score came to 0.078 ± 0.93.

Consider GVLSKSSKLFNCKDYCHSKY, for which the amyloid nucleation score is 1.13 ± 0.35. In the case of HLSEFAVGVCEVY it was 1.27 ± 0.56; in that of SPFMGCLYNLLDLDDGS, -0.65 ± 0.51; in that of KVLNFNLSRACLLWDSFNSV, 2.65 ± 0.19. In the case of NYEYRDYASDERLYGSGTML it was 0.103 ± 0.37; in that of TRWCEWRYRSPDRYASLTGF, -0.06 ± 0.43; in that of AFFNCPSTNTVWQRFNANRF, 1.72 ± 0.14. Substance RMFPCYIAV yielded an amyloid nucleation score of 0.015 ± 0.27. In the case of TKGAFKVEKWSLSE it was -0.115 ± 0.23; in that of LTDPLCQTPFFYLFCRDAQE, -0.142 ± 0.4.

On to FQYTACIN, for which the amyloid nucleation score stood at 1.08 ± 0.57. On to LLRGTIFVNDRVTID, for which the amyloid nucleation score came to 0.973 ± 0.59. In turn, WVLNG came in with an amyloid nucleation score of -0.514 ± 0.34.

For LMVFAIRDLNFRHTILQPVP, the amyloid nucleation score is -0.081 ± 0.42.

SCNHKNSRSHLALQS showed an amyloid nucleation score of 1.6 ± 0.44. As for MTWIENKPLHNVRCRGIIAV, the figure is -0.12 ± 0.43. In the case of VYSFDMM it was 0.256 ± 0.52.

In turn, CPVGQTNCQDL registered an amyloid nucleation score of 0.072 ± 0.51. Substance LIAPGFPERCRQGRMYEF showed an amyloid nucleation score of -0.234 ± 1.2. As for WIILVHGGGKRLSVNIHLLC, the amyloid nucleation score was -0.713 ± 0.32. DRREGF had an amyloid nucleation score of -0.892 ± 0.32. In turn, INLGLVGSRFGSNMERLYGG had an amyloid nucleation score of 0.503 ± 1.1. In the case of IQYDSFNVRFDIATAIDYFA it was -0.12 ± 0.67; in that of CQSFIGTDTKFVIPDMVLAA, “inactive”; in that of SLCFYGEQIFHN, 2.24 ± 0.17.

The substance NLRQVCNSAFVVGSVIFFWV came in with an amyloid nucleation score of -0.318 ± 0.69. Substance LGRRIPCNLEWHHLDGALTR returned an amyloid nucleation score of 0.013 ± 0.36.

As to NFKNKIMGALS, the amyloid nucleation score was -0.548 ± 2.1.

On to FCKWCRFDDCTRGYIYFVRR, for which the amyloid nucleation score was 1.76 ± 0.37. LSDWWKTSMFGYPVYSVVAR had an amyloid nucleation score of 0.62 ± 0.36.

Consider FDGMYNDVRTRNVGARYF, for which the amyloid nucleation score is 0.552 ± 0.64. In the case of YVDLFIMPIACGTSVMHLNL, the amyloid nucleation score is 5.464 ± 0.047. SAYPCCLSEDYVSSSGVSNK returned an amyloid nucleation score of 0.74 ± 0.48. With FIRSVKRGARWSGGNFFIEG, the amyloid nucleation score result was “inactive”. As for LSKYGVCVALLCIWMGHNWC, the figure is 0.22 ± 0.2; as for FENCHHYGTARFKDLPRSIV, -0.208 ± 0.66; as for RPRICLWWSLNQMDVWNRDR, 2.17 ± 0.31.

Turning to MKRTFRTLF, the amyloid nucleation score was 0.57 ± 0.41.

In turn, YNFVSCLVYRK displayed an amyloid nucleation score of 6.9 ± 0.071. In turn, GSCFTVWMIGPGRRTLLQVL returned an amyloid nucleation score of -0.079 ± 0.54. On to VDWSVAWHWLLSSD, for which the amyloid nucleation score came to 0.484 ± 0.49. As for VFCSQGMADTLR, the figure is 0.409 ± 0.84. WVSPLVYDWYLT gave an amyloid nucleation score of -0.929 ± 2.7. Substance YTYDLYVTSVLNVSRESSHC showed an amyloid nucleation score of -0.343 ± 1.4. For the substance STFSLTSRASHKVPQDRYFP, the amyloid nucleation score is 0.353 ± 0.61. Take NHFLRSNNKYLSWGKTYIAP: the amyloid nucleation score is -0.846 ± 2.4. For FESRRVKNGID, the amyloid nucleation score result was “inactive”. Consider AVFGRLMVVDVYVSRSALTS, for which the amyloid nucleation score is 0.043 ± 0.94.

As for SMSPWDFNICCMNVCTTLLT, the amyloid nucleation score came out at 2.77 ± 0.25.

Substance KKAIPACHVVSFTMRLSFLD showed an amyloid nucleation score of 0.225 ± 0.63. On to SFRACFGPWLFIALIPKNTV, for which the amyloid nucleation score was -1.1 ± 0.61. RYLVALFSMYKWYGVEKDWK registered an amyloid nucleation score of 0.954 ± 0.54. In turn, LSYMSLFW showed an amyloid nucleation score of 1.94 ± 0.16.

On to VKVCSSSMRFNVL, for which the amyloid nucleation score was found to be 0.689 ± 0.58. SEEYWVLDWIEVGLKGSLRM yielded an amyloid nucleation score of -0.105 ± 0.55.

Take SRWKLGGGDL: the amyloid nucleation score stood at 0.006 ± 0.64. Turning to ILLYVICQVVTTV, the amyloid nucleation score was determined as 1.64 ± 0.34. RSKNWMVNRDWGSKVDRLAN returned an amyloid nucleation score of 0.089 ± 0.86. In the case of LWNLVLKCD, the amyloid nucleation score is -0.215 ± 0.29. Take AYICYLILFQSQRVW: the amyloid nucleation score is -0.827 ± 1.7. As for LVNRVKRCAMNVHLSIGGDR, the figure is -0.479 ± 0.44.
